B1: Slowpoke-binding protein (Drosophila melanogaster (Fruit fly)), Q8IPH9 (parent)
chain: MFKFNKAAQQQRIDNRNSAVTGHDPFVRPPVPEKKVRNIMKKLHKANGLKRSNSAIEFDVSALTAANRRQIYSSNRSASSEQDNSDLSEHSEKSPLVSARLDNLARLFFSKSMPAETGSRDTIDSVLTTRPNIKYQYSALDSGNGIVERSPRERAQREKALNATQEWIQGANGRYEVIAHLDEIGSRHGKNWFLVTDASVRTDRLQTLLPLPPDCVAFEDLPPNECAREILMELLGSLHHPYIYPVLDLGFLRNSSYNYACLVTPFNSRGSLKDLIYKAQWNEPWARKYTRKPNGLPVSQVQRLGRQILEALLFLKERGFPLHGHLHSGNVILQNGAARLSGLENGLLGLSSRINAVMWSRSVTEIENVDIVCFGHLLYEMCTGQELTTPKPSMRVLEMELQHYPQIGQTRKQILEILGLIFEPPSGVCPSVEDLVLCDLFRSIDLRELRGPCFSTIKPSLSRSTLNLLQAVKKRQCASLGHSLSEANSPCTPPSTPHDRRTGVLPAPYEVFRMY
partner: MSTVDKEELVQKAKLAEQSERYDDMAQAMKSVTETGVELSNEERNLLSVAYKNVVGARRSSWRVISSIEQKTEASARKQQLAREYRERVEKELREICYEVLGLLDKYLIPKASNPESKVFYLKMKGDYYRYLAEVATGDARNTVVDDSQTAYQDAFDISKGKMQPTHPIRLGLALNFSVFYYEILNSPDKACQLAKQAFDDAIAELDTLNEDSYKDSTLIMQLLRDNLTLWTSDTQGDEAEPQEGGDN

Variants of: B1
Details: with 1433z_drome 14-3-3zeta

| effect of a mutation on the interaction | Variant |
| --- | --- |
| decreasing interaction strength | S54A;S79A |

Source: IntAct's records for PubMed 10230800
